Assay results taken from article PMC7020226, “Enzymatic Properties of Recombinant Phospho-Mimetic Photorespiratory Glycolate Oxidases from Arabidopsis thaliana and Zea mays” (Plants, 2019).

Tests used:
Details in all cases: 50 mM Tris-HCl pH 8.0, 0.1 mM FMN, 30 °C
[1] = substrate: O=C(O)CO; assay: purified protein
[2] = substrate: C[C@H](O)C(=O)O; assay: purified protein
[3] = substrate: CCCCCCC(O)C(=O)O; assay: H2O2 detection, horseradish peroxidase / o-dianisidine coupled assay; type: biochemical, Arabidopsis thaliana
[4] = substrate: CCCCCCC(O)C(=O)O; assay: as above; type: biochemical, Zea mays
Source text: H2O2 detection, horseradish peroxidase / o-dianisidine coupled assay on ZmGO1

B1: AtGOX2 (Arabidopsis thaliana; T265D) (protein)
chain: MEITNVTEYDAIAKAKLPKMVYDYYASGAEDQWTLQENRNAFARILFRPRILIDVNKIDMATTVLGFKISMPIMVAPTAFQKMAHPDGEYATARAASAAGTIMTLSSWATSSVEEVASTGPGIRFFQLYVYKNRKVVEQLVRRAEKAGFKAIALTVDTPRLGRRESDIKNRFTLPPNLTLKNFEGLDLGKMDEANDSGLASYVAGQIDRTLSWKDIQWLQTITNMPILVKGVLTGEDARIAIQAGAAGIIVSNHGARQLDYVPADISALEEVVKATQGRVPVFLDGGVRRGTDVFKALALGASGIFIGRPVVFALAAEGEAGVKKVLQMLRDEFELTMALSGCRSLSEITRNHIVTEWDTPRHLPRL
Q: B1 was tested. Which Km [1] did it give?
A: The Km was 388 ± 159 µM.

Q: And the kcat [1]?
A: The kcat was 2.06 ± 1.09 s⁻¹.

B2: AtGOX2 (Arabidopsis thaliana) (protein)
chain: MEITNVTEYDAIAKAKLPKMVYDYYASGAEDQWTLQENRNAFARILFRPRILIDVNKIDMATTVLGFKISMPIMVAPTAFQKMAHPDGEYATARAASAAGTIMTLSSWATSSVEEVASTGPGIRFFQLYVYKNRKVVEQLVRRAEKAGFKAIALTVDTPRLGRRESDIKNRFTLPPNLTLKNFEGLDLGKMDEANDSGLASYVAGQIDRTLSWKDIQWLQTITNMPILVKGVLTGEDARIAIQAGAAGIIVSNHGARQLDYVPATISALEEVVKATQGRVPVFLDGGVRRGTDVFKALALGASGIFIGRPVVFALAAEGEAGVKKVLQMLRDEFELTMALSGCRSLSEITRNHIVTEWDTPRHLPRL
notes: full length, N-terminal His-tag, pET28a, expressed in Escherichia coli
Q: B2 was tested. Which Km [1] did it give?
A: Its Km is 279 ± 30 µM.

Q: And the kcat [1]?
A: The kcat was 10.93 ± 3.48 s⁻¹.

Q: And the Km [2]?
A: The Km was 2094 ± 791 µM.

Q: What about the kcat [2] of the same protein?
A: Its kcat is 6.81 s⁻¹.

Q: And the Km [3]?
A: Its Km is 487 ± 99 µM.

Q: What about the kcat [3] of the same protein?
A: The kcat was 3.78 ± 1.26 s⁻¹.

B3: AtGOX2 (Arabidopsis thaliana; T4D) (protein)
chain: MEIDNVTEYDAIAKAKLPKMVYDYYASGAEDQWTLQENRNAFARILFRPRILIDVNKIDMATTVLGFKISMPIMVAPTAFQKMAHPDGEYATARAASAAGTIMTLSSWATSSVEEVASTGPGIRFFQLYVYKNRKVVEQLVRRAEKAGFKAIALTVDTPRLGRRESDIKNRFTLPPNLTLKNFEGLDLGKMDEANDSGLASYVAGQIDRTLSWKDIQWLQTITNMPILVKGVLTGEDARIAIQAGAAGIIVSNHGARQLDYVPATISALEEVVKATQGRVPVFLDGGVRRGTDVFKALALGASGIFIGRPVVFALAAEGEAGVKKVLQMLRDEFELTMALSGCRSLSEITRNHIVTEWDTPRHLPRL
Q: Which Km [1] does the source give for B3 here?
A: Its Km is 390 ± 215 µM.

Q: What about the kcat [1] of the same protein?
A: The kcat was 1.40 ± 0.42 s⁻¹.

B4: AtGOX2 (Arabidopsis thaliana; T158V) (protein)
chain: MEITNVTEYDAIAKAKLPKMVYDYYASGAEDQWTLQENRNAFARILFRPRILIDVNKIDMATTVLGFKISMPIMVAPTAFQKMAHPDGEYATARAASAAGTIMTLSSWATSSVEEVASTGPGIRFFQLYVYKNRKVVEQLVRRAEKAGFKAIALTVDVPRLGRRESDIKNRFTLPPNLTLKNFEGLDLGKMDEANDSGLASYVAGQIDRTLSWKDIQWLQTITNMPILVKGVLTGEDARIAIQAGAAGIIVSNHGARQLDYVPATISALEEVVKATQGRVPVFLDGGVRRGTDVFKALALGASGIFIGRPVVFALAAEGEAGVKKVLQMLRDEFELTMALSGCRSLSEITRNHIVTEWDTPRHLPRL
Q: How did the Km [1] turn out when B4 was run?
A: The Km was 133 ± 83 µM.

Q: What about the kcat [1] of the same protein?
A: Its kcat is 2.49 ± 0.60 s⁻¹.

B5: AtGOX1 (Arabidopsis thaliana; T265D) (protein)
chain: MEITNVTEYDAIAKQKLPKMVYDYYASGAEDQWTLQENRNAFARILFRPRILIDVSKIDMTTTVLGFKISMPIMVAPTAMQKMAHPDGEYATARAASAAGTIMTLSSWATSSVEEVASTGPGIRFFQLYVYKNRNVVEQLVRRAERAGFKAIALTVDTPRLGRRESDIKNRFTLPPNLTLKNFEGLDLGKMDEANDSGLASYVAGQIDRTLSWKDVQWLQTITKLPILVKGVLTGEDARIAIQAGAAGIIVSNHGARQLDYVPADISALEEVVKATQGRIPVFLDGGVRRGTDVFKALALGASGIFIGRPVVFSLAAEGEAGVRKVLQMLRDEFELTMALSGCRSLKEISRNHITTEWDTPRPSARL
Q: How did the Km [1] turn out when B5 was run?
A: The Km was 531 ± 50 µM.

Q: And the kcat [1]?
A: The kcat was 0.14 ± 0.06 s⁻¹.

B6: AtGOX1 (Arabidopsis thaliana) (protein)
chain: MEITNVTEYDAIAKQKLPKMVYDYYASGAEDQWTLQENRNAFARILFRPRILIDVSKIDMTTTVLGFKISMPIMVAPTAMQKMAHPDGEYATARAASAAGTIMTLSSWATSSVEEVASTGPGIRFFQLYVYKNRNVVEQLVRRAERAGFKAIALTVDTPRLGRRESDIKNRFTLPPNLTLKNFEGLDLGKMDEANDSGLASYVAGQIDRTLSWKDVQWLQTITKLPILVKGVLTGEDARIAIQAGAAGIIVSNHGARQLDYVPATISALEEVVKATQGRIPVFLDGGVRRGTDVFKALALGASGIFIGRPVVFSLAAEGEAGVRKVLQMLRDEFELTMALSGCRSLKEISRNHITTEWDTPRPSARL
notes: full length (367 residues), N-terminal His-tag, pET28a, expressed in Escherichia coli
Q: B6 was tested. Which Km [1] did it give?
A: The Km was 210 ± 90 µM.

Q: What about the kcat [1] of the same protein?
A: Its kcat is 11.12 ± 3.08 s⁻¹.

Q: And the Km [2]?
A: The Km was 1664 ± 293 µM.

Q: And the kcat [2]?
A: The kcat was 9.09 s⁻¹.

Q: What about the Km [3] of the same protein?
A: The Km was 757 ± 82 µM.

Q: And the kcat [3]?
A: The kcat was 5.95 ± 0.58 s⁻¹.

B7: AtGOX1 (Arabidopsis thaliana; T158V) (protein)
chain: MEITNVTEYDAIAKQKLPKMVYDYYASGAEDQWTLQENRNAFARILFRPRILIDVSKIDMTTTVLGFKISMPIMVAPTAMQKMAHPDGEYATARAASAAGTIMTLSSWATSSVEEVASTGPGIRFFQLYVYKNRNVVEQLVRRAERAGFKAIALTVDVPRLGRRESDIKNRFTLPPNLTLKNFEGLDLGKMDEANDSGLASYVAGQIDRTLSWKDVQWLQTITKLPILVKGVLTGEDARIAIQAGAAGIIVSNHGARQLDYVPATISALEEVVKATQGRIPVFLDGGVRRGTDVFKALALGASGIFIGRPVVFSLAAEGEAGVRKVLQMLRDEFELTMALSGCRSLKEISRNHITTEWDTPRPSARL
Q: For B7, which Km [1] is on record?
A: Its Km is 100 ± 19 µM.

Q: And the kcat [1]?
A: The kcat was 2.36 ± 0.47 s⁻¹.

B8: AtGOX1 (Arabidopsis thaliana; T4D) (protein)
chain: MEIDNVTEYDAIAKQKLPKMVYDYYASGAEDQWTLQENRNAFARILFRPRILIDVSKIDMTTTVLGFKISMPIMVAPTAMQKMAHPDGEYATARAASAAGTIMTLSSWATSSVEEVASTGPGIRFFQLYVYKNRNVVEQLVRRAERAGFKAIALTVDTPRLGRRESDIKNRFTLPPNLTLKNFEGLDLGKMDEANDSGLASYVAGQIDRTLSWKDVQWLQTITKLPILVKGVLTGEDARIAIQAGAAGIIVSNHGARQLDYVPATISALEEVVKATQGRIPVFLDGGVRRGTDVFKALALGASGIFIGRPVVFSLAAEGEAGVRKVLQMLRDEFELTMALSGCRSLKEISRNHITTEWDTPRPSARL
Q: Which results are given for B8?
A: Km [1]: 151 ± 44 µM; kcat [1]: 0.61 ± 0.46 s⁻¹

B9: ZmGO1 (Zea mays) (protein)
chain: MGEITNVMEYQAIAKQKLPKMAYDYYASGAEDEWTLQENREAFSRILFRPRILIDVSKIDMTTTVLGFKISMPIMVAPTAMQKMAHPDGEYATARAAAAAGTIMTLSSWATSSVEEVASTGPGIRFFQLYVYKDRKVVEQLVRRAERAGFKAIALTVDTPRLGRREADIKNRFVLPPHLTLKNFEGLDLGKMDQAADSGLASYVAGQVDRTLSWKDVKWLQTITTLPILVKGVLTAEDTRLAVANGAAGIIVSNHGARQLDYVPATISALEEVVKAARGQLPVFVDGGVRRGTDVFKALALGAAGVFVGRPVVFSLAAAGEAGVSNVLRMLRDEFELTMALSGCTSLAEITRKHIITESDKLSAIPSRL
notes: as for B2
Q: Which Km [2] does the source give for B9 here?
A: The Km was 495 ± 75 µM.

Q: What about the kcat [2] of the same protein?
A: The kcat was 10.8 s⁻¹.

Q: What about the Km [4] of the same protein?
A: The Km was 136 ± 19 µM.

Q: What about the kcat [4] of the same protein?
A: Its kcat is 5.89 ± 0.14 s⁻¹.

B10: ZmGO1 (Zea mays; T159V) (protein)
chain: MGEITNVMEYQAIAKQKLPKMAYDYYASGAEDEWTLQENREAFSRILFRPRILIDVSKIDMTTTVLGFKISMPIMVAPTAMQKMAHPDGEYATARAAAAAGTIMTLSSWATSSVEEVASTGPGIRFFQLYVYKDRKVVEQLVRRAERAGFKAIALTVDVPRLGRREADIKNRFVLPPHLTLKNFEGLDLGKMDQAADSGLASYVAGQVDRTLSWKDVKWLQTITTLPILVKGVLTAEDTRLAVANGAAGIIVSNHGARQLDYVPATISALEEVVKAARGQLPVFVDGGVRRGTDVFKALALGAAGVFVGRPVVFSLAAAGEAGVSNVLRMLRDEFELTMALSGCTSLAEITRKHIITESDKLSAIPSRL
notes: as for B2
Q: What does the source list for B10?
A: Km ([4]; printed as T158V in Table 3): 48 ± 36 µM; kcat ([4]; printed as T158V in Table 3): 3.22 ± 0.39 s⁻¹
